Laboratory results taken from PMC7062783, “Endophilin-A coordinates priming and fusion of neurosecretory vesicles via intersectin” (Nature Communications, 2020).

Molecular target: T1, recombinant rat endophilin A1 FL (GST fusion) (rat, UniProt O35179 1-352)
T1 construct: endophilin A1 (endophilin 1), rat, full length, cloned into pGEX4T-1; also called endophilin 1
Test: pull-down; 50 or 100 ug GST-fusion protein coupled to GST-Bind resin, incubated with 10 ug His6-tagged recombinant protein in 1 ml for 1 h at 4 °C; extensive washes; Coomassie staining and/or SDS-PAGE and immunoblotting
Details: both partners purified

T1 sequence (O35179 whole entry, the tested form may be a part): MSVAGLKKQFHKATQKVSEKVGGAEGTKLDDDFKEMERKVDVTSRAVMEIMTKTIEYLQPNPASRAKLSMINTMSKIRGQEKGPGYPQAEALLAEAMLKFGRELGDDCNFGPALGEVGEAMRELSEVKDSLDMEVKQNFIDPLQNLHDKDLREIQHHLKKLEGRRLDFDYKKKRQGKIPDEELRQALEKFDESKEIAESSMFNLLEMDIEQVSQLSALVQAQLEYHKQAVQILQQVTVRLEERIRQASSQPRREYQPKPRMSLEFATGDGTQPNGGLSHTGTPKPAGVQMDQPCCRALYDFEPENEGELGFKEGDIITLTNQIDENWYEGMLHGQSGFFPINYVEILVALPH

binding result: binds
B1: recombinant human intersectin-1 SH3B (aa 914-970), His6-tagged (domain or fragment, UniProt Q15811 914-970, looked up)
chain: EGLQAQALYPWRAKKDNHLNFNKNDVITVLEQQDMWWFGEVQGQKGWFPKSYVKLIS
notes: intersectin-1, human, SH3B domain, aa 914-970, cloned in pET28a; also called ITSN-1; ITSN1
